Results reported in the domain aggregation screens of Martell et al. (2025).

Experiment: soluble fraction after stress (log2 fold change); higher = more stays soluble; pooled small domains, quantitative proteomics
Details: stress: 75 degC
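Note: 20 min heating vs room temperature control held 20 min.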

| Sequence | soluble fraction (log2) |
| --- | --- |
| HMSTVEKDSELGGNFRIASYPTGKGQISEAIRSMIVRAKQVGVNIRLNTEATEEPLRALAPNAVILATG | 0.188 |
| HMSTVELPVQINGKVRGRITVPANAGQEDVKQAALADSKVQRYIEGASIRKVIVVPRKLVNIVV | -0.215 |
| HMSTVTGLINYLSSGLIKGVGEATARKLVDHFGLDVLDIIQFNPQRLLEVDGIGEARAEMIASSFSEQK | -1.21 |
| HMSVDIIPGKADQKVRLIHDPAIVGVTTGGVKTAGPHTLIQIELGPNERPYKRLSLLELIPEG | -0.347 |
| HMSVDVGMQLRKLREERKISMRELARLSGLSANALSMIERGLTSPSVSTLNKLAGALEVPITAFFRI | -1.35 |
| HMSVEVPNLIGKTLDQVDIDLKSLDLSFVILDSARYNSSFKPLSVIDHQPISGAKVKVNRKIYLTINPS | -0.411 |
| HMSVKIELNENEQAIFTAVQKVNEAVLPELRAQFSDMSNKAWDNSVKMLTKNNLLKVSKEGEILYIRM | -1.22 |
| HMSVKSVSLRKISYKVRRGDSLYNIAKNFSLSINDITHWNSINKKSYLQPGQRLTLYINPRN | -2.18 |
| HMSVKVFRDQILLNNDSDKMLQLSFSNLFGQKVLETSISPGKSAISTGNLPPGIYFITTSPATGVMRVII | -1.78 |
| HMSVLRLGNRGPDVRKLQLLLNSTLVPSPQLTVDGDFGKRTEQAVVTFQQMRGLPQDGIVGQRTWALLGQT | -0.652 |
| HMSVLSVASKNQAINPGQVVALLKDGIKLNDDGRVEILDNNNNIRYNEKGNLLSIEERVKEFLDANPHFRQ | -0.399 |
| HMSVLVLPMLKELTHEDREVVELFYLNDMSVREIALIISVPIGTVKSRLHRARAQLKHQIVNLNQ | -3.76 |
| HMSVPVNAPMPGTILDIKVKAGAAVKAGDVVMILEAMKMENEISAPQDGTIASIDVRKGDTVNSGDVLYTM | -0.198 |
| HMSVSVNAPMPGNILDVRAKTGESIQKGQVIVILEAMKMENEIMAPQDGKISSINTSKGSTVNSGDLLFTM | -0.106 |
| HMSVTMPNLVGLDEQTAVTRINSSNLSYGSTNYVHSDHEAGVVFKQSTPAYTEVDEHTKIYIWVSLGPEE | -0.729 |
| HMSVTPLLDATEKDKTKYRDLWLVAVVKNGVNYARKYKFGYVYAWLYRHDRDWLLQVNNQHKIPNIT | 0.0707 |
| HMSVTVMVLRAAGDIQAGTEITDKHLATVEVGEYGLPEGIINDKDSILGKIALTDIAKGDYFFSQKLG | -0.954 |
| HMSVVKPIYIGMMTSEVEAIMGKPFEVITNNNSKNNQLWIYKYQDKRSVMLTFTNYKLIKIE | -2.7 |
| HMSWDNELLERAHKIIELYPQKRSALGPLLYLAQEKDGFISDDSIVEISNLVDITEVQVKSVSSFYSMY | -0.903 |
| HMSWGDVKLTMWGAEEDQTMLREMADAFIEQNADKGNVTIEIGVQSESSAKDTVLADPESAADVFA | 0.242 |
| HMSWRWVPVSGAYTTSALEAAGLTRAFDDQAAAEEWLGLFFDDLLREGVGEVSLYEEDRLVYGPMSL | -2.49 |
| HMSYANVEWRDFLNSLDEKYRIVVILYYVQGFKTREIAEILQINQSTVRGRLAKAREKLEQQYN | -1.4 |
| HMSYFIFDGVLNLGKQYELKGEESSHITKSRRLRPGDSFLIQDQEGQRFEAILKSFDRNSLIFTPHKPTA | -0.722 |
| HMSYFNEYEVGDTIRVVNGPLADQISTITAIDKEKGLVNISTVFFGRENNVQVSINDIEKYN | 0.0153 |
| HMSYGDLTGRTVVITGASKGIGARASRVLAQAGASVVGLARSVDELTALKYDLENDGLSFDFG | ≥ 1.04 |
| HMSYKYYSTERPLMPGSFPKPQGNTVLNIENFNDRSYVGKIGREAWGFIEYEKPISPVLLDDYELVAA | -0.235 |

| Sequence | soluble fraction (log2) |
| --- | --- |
| HMSYLELENLAEDIKATYDNLSTDLREVFRLSDIEGLSYEEISNKMNIPIGTVRSRLHRARETLLRIFNN | -1.39 |
| HMSYPTAVTQTTLNVRTGPGTQYERLGAFVENTEVIVLTRQPEWIQVRGMSGDKAIIGWVSARYLQMNP | -2.21 |
| HMSYQNKLNYLINAFGGADNFQKLLGVGPSAISNYKSRKHLPLNQAKRLSKIAPQFGFSLDPHSLQIST | -0.856 |
| HMSYQSYDKVVGDTFFEANLKAESKFGKGNFEIISTRRVKHPIYLGFGHKELVELTIGIHDP | -1.33 |
| HMSYTAYLSQELGDMSREIQSELLKKGYNGSSSFTIVRTYMGSSVKFSVYNANNGELITSKTINM | -2.9 |
| HMSYTDIILKMSNVNFLTKVNFTNSEKNKNIKNGNFLIKKGKNRITAAFDYKDNELVISKSNLRNTFL | -1.18 |
| HMTAEVIYVDVGGEVNQPSVVELTDGSRVTDAIAAAGGLTEKADLTDINRAAFVSDGEKIFIPSQEE | 0.4 |
| HMTAFAGLTPRERDLLELIAQGRDNAQIAATLGVSDKTVRNHITHIFAKLEVETRAQAIVLARNAGFGRA | -1.12 |
| HMTAGYFTRGSHQDEVLRIQGTPSGVNKYSDHEVWNYGLSSVDISLRDRRVTEWNNISGNLKV | -0.149 |
| HMTAKRELILRVFMDSNGKLLSIDDVFMEMRKKRSHRTSKMTVKRAIDLLVDLGLLKEVLFDDDNIKYEYV | -1.26 |
| HMTALISGNKAMQMLELSRHSFEKIVKDGLLSIVHEGDKKYYEIGEVEAFMGSDTYKELVNGV | 0.449 |
| HMTALSIGTVVRFTGDRHYISSTGDTGYPASPGLAKITSINPGSKHPYHLIHIDNTSNVYGWVNKQDIIT | -1.17 |
| HMTAQLSITLNGETRRAAAGSIADLVRSLELDPAKVAVERNGLIVPRSTLAEVALGDGDVLEIVHFV | -1 |
| HMTASTLSYSKFNEQVVQNQVRKVTFQGEQVKGELISGQTFTTTVPANDTTLWPMLKAHNVDTAVTAA | 0.186 |
| HMTASVTDAMFELIDELPKLGKTSFRQLTADLVDRLQVVVTFLAVLELYKQGHVELDQSERFGDITVVWTG | 0.208 |
| HMTATIEEVNELTQSARVNINVPYAAKDEAKAYGAKWDDVERTWYTTGENYAQNKDFFDGFNPTAS | 0.583 |
| HMTATWLTYYRIKAGLTQKRLAELAGLNIRQVQKIENGETLAGNTTAKNLLALADALGIDPHKL | -2.15 |
| HMTAYENSIPLNWVIQKGDAKGLPLSANTARLLIDIVGIDLMDLDHELEKISLYLSGESITEEMIKEHIRG | -0.709 |
| HMTDAELDLLTPREQEVLQLIARGYLYKEIARRLGISVKTVEAHASSVLRKLQLSTRHELSHWAAQRH | -0.0813 |
| HMTDAYEVLDLNREASDEEIKKRYRELIREHHPDTLIAKGVPQEFVDLANDKMAAINAAYDRIEKDRGL | 0.56 |
| HMTDEEKENLREKMLEAGFPLLKQYGMTHTSVAKITQAAGIAVGTFYSFWKNKEAYMADLIGYHRR | -1.27 |
| HMTDITSAITRLNKYNKSGTPLTIDSVTPEALQTLQAKVSSAFEIGAVNQQTYDDVTKDIATLQQYLSSA | 0.378 |
| HMTDIVPNLIGKSLKDAIQSVEKSNLKAIFDGHGIVVSQQPRPGSPIPARKIMKVTLSPDYR | -0.13 |
| HMTDKLEEEAKKKAMEDALADEMNISKTIVHDGIRELARIGFLDVISRKGIYVADYTFTGNLETLLAVIRY | -0.848 |
| HMTDLDDFAARLKTLTDGRASTPRLRDGVMMLSLDVGGLGPDQRDGLIAAIREGGLTVPGVSDVRIVMT | -0.125 |
| HMTDLEDDEKKVYRLIVESGEGIDFDTLSERSGFSATELPSILLFLMMKEMIDELPGKIYRYSE | -0.0725 |

| Sequence | soluble fraction (log2) |
| --- | --- |
| HMTDMYLTYQELRHLGVSQNLISMWKSRKSIDFHMLGGTLYVRYMSIPEQTRSKLALQNVERVYNSRE | -2.6 |
| HMTDRINIGDVVTIISKDREDSQIVYMRYHKGKLSILGELILNKTKNDTVDFKGRTYDIATIEKS | -2.22 |
| HMTDVHFIDVPVSEGHPWIGLTVKDLNLPPGTLLVFLNHPGEKSTVPNGDTVLREGDVLVLGATAYAG | -0.384 |
| HMTDYKTNLQEFLQQDGEVEIEYKLLAEVGPSHARQFEVDVMMGDRVLGSGVGRNKKAAEQAAAKVALSKL | -0.0613 |
| HMTDYVPTIGTKISKDFGSKGYFEGEVVSGPHNVTVEGDNMVVWKVQYEDGDREEMTASEIAHWKA | -0.104 |
| HMTEAIDVPNLVGQNYSDVKSNSSYKFNWDIINVYDSGKPEGEIIKQEPEAGSKKVKENAVITLTVN | 0.538 |
| HMTEDNDLETIAYDILKERNLNNININVKNGVLNIYGKTETLKEKREIEKILSSLNVSKINNLIKI | 0.258 |
| HMTEDQDWAIFKQKLKAQTEIDLDLYKEPQMKHRIKNLIQNAGFDSYVQYFDYVYLNQDRLAAFLENLTV | -0.535 |
| HMTEEELLERLDAVITEYKGKPGALIPVLQLAQGIFGYLPEVALKHIARQLDKPYSEVAGVVSFYSFFTT | 0.291 |
| HMTEFDVIMKSFGSEKIKVIKEVRAITGLGLAEAKALVEGVPAKIKEQVSKDDAEALKKQLEAVGAEVEL | -0.0848 |
| HMTEFWTGPITTVTKANFADWTLDTNQDRITANVWLTRADSKGLFNITPGKETAFDIVDYLSPLDTEWA | -0.209 |
| HMTEGDRLARRILRLVRNKPNGYPEVELMKATVLDWNHFQRSISSLEMAGILERRDPGDGTPPVWVEKR | -1.53 |
| HMTEKIEWYKEVLDLEPNSKIFFPLAKMLEKEGELEEARRVLAEGVSRHEEFLEARLFYISVLSRL | -0.301 |
| HMTENLELLATGSLWTEPDGSGKIISYLIPGLRVKKLETNGIFYKIQLQNGLIGWADQSLFTIAEPK | -1.62 |
| HMTENQKNIDLIKIVSLLVHAAKIDENYTNKEKELIINFINNFSKENKQNIKSSEILEEAEKYEK | 0.132 |
| HMTEPKRIVDHWQPSDDVYDILRMSHIDLDFARSLLPEFIVYWKDSSQTHTSWNSKFLQHAKYHWAKRHQL | -2.27 |
| HMTEPLTKREKEVLLLLPRGLTAKAMASELFLTEATIKSHLAAIFRKFKVVNRTQAIAIAVESKILT | -2.41 |
| HMTESLVITVDPALHGLRLDRGLADALPDRSRSEVQRWIKEGRVQLHGAPAKPSLKLAAGDIVTIALPEE | 0.442 |
| HMTESSTYFEKIGTEISQFKSIPKNIDVIIIEKLIYSGIIKKVDNEENSRVYYILTRKGRYFWKRYVLS | 0.16 |
| HMTETFVLNLRQPIAAAPVLPGYRVARTDEQTLEVEVSKDQNLNEIFTALSALGVEVLSMRNK | -0.0438 |
| HMTFAEADAQYEVIKQQYLAGALDEEQFDEQLHRLMVLDDGGLWWAKSRENGSWHYYDPDREDWIAATP | -0.394 |
| HMTFEAKKGYINADMSVNVRETASTSATVIITLNPNTEVKVVGEENDFYKIEYKEYKGYVAKRLISDSQVQ | -0.747 |
| HMTFPTEAKLTGDKVFVRSGPSTQSQRLTNLAINSVVTVLAREMGDMQYPWYKVRYSDGEGWVYGQYVEAI | -1.08 |
| HMTFTQFAESHGVIIKSLKASDKIQRGPTVAHPKSDNGAWLWDGNRGGVMAWDGDGQWYWFK | -1.73 |
| HMTGEERRMNTADLYRRRGMELFKRKIYVDAIDSLKVSLEYEDNATTRYYLDLATKRYQDLKIS | -2.13 |
